Assay results from patent US20050064533A1 (ADELAIDE RESEARCH AND INNOVATION, published 2005).
Substitutions are numbered along the chain they refer to. Numbers in names are those of the source.

B1: C-terminal 100 amino acids of mouse HIF-2a (775-874), wild type, with N-terminal thioredoxin/6-histidine tag (other)
chain: RGLGQPLRHLPPPQPPSTRSSGENAKTGFPPQCYASQFQDYGPPGAQKVSGVASRLLGPSFEPYLLPELTRYDCEVNVPVPGSSTLLQGRDLLRALDQAT
modifications: in vitro translated in the presence of 35S-methionine (radiolabelled Met)
notes: range 775-874; also called HIF-2a CAD; wild type CAD; not shown: N-terminal thioredoxin/6-histidine tag supplied by the pET32 vector
B2: C-terminal 100 amino acids of mouse HIF-2a (775-874), mutant N851A, with N-terminal thioredoxin/6-histidine tag (other)
chain: B1 chain with N77A
modifications: in vitro translated in the presence of 35S-methionine (radiolabelled Met)
notes: range 775-874; also called N851A point mutant CAD; not shown: N-terminal thioredoxin/6-histidine tag supplied by the pET32 vector
B3: C-terminal 100 amino acids of mouse HIF-2a (775-874), mutant RLL to AAA, with N-terminal thioredoxin/6-histidine tag (other, UniProt P97481 775-874, looked up)
chain: B1 chain with R55A, L56A, L57A
modifications: in vitro translated in the presence of 35S-methionine (radiolabelled Met)
notes: range 775-874; also called RLL to AAA triple mutant CAD; not shown: N-terminal thioredoxin/6-histidine tag supplied by the pET32 vector

Legend:
[1] = molecular target: recombinant MBP (Maltose Binding Protein) alone, negative control (UniProt P0AEX9 27-392 = MBP); test: pulldown on amylose-agarose resin, autoradiography
Description: (§1) FIG. 8. […] The CAD containing C-terminal 100 amino acids of HIF-2a was in vitro translated in the presence of ³⁵S-methionine. […] The resin mixtures were washed before the pulled down proteins were analysed by SDS-PAGE and autoradiography. Lanes 1-3 show 10% of the input translation mixtures.
(§2) Samples were centrifuged 1500 rpm, 30 secs (room temp) to pellet resin, and the supernatant discarded. Resin was then washed three times with 1 ml of the binding buffer. […] After centrifuging 30 secs/1500 rpm, 30 ul of the supernatant was separated by electrophoresis through a 12.5 % polyacrylamide gel. The gel was dried and exposed to autoradiography.

[2] = molecular target: T1, MBP (maltose binding protein) fused to wild type HIF Asparagine Hydroxylase (HNH) (UniProt Q9NWT6 1-349); test: pulldown on amylose-agarose resin, autoradiography
T1 construct: also called MBP-HNH; MBP/FIH-1
Description: as §1, §2

T1 sequence (Q9NWT6 whole entry, the tested form may be a part): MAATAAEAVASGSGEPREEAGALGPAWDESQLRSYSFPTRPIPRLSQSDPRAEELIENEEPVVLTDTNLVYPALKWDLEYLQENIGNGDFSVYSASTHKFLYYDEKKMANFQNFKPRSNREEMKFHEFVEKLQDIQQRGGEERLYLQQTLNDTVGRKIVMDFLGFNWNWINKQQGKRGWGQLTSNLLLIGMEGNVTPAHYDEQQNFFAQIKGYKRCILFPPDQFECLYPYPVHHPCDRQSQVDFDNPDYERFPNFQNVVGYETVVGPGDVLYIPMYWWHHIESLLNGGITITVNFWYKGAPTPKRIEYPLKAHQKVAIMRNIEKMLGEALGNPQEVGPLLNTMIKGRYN

Binder | binding result [1] | binding result [2]
B1 | no binding | 
B2 | no binding | 
B3 | no binding | no binding
